Blank lines part the entries; values can stand above or below the substance they belong to.
Tests used:
[1] = target: hOGG1 (human oxoguanine glycosylase 1), wildtype (human) (UniProt O15527); test: fluorescence polarisation; oxidising conditions (5 uM H2O2); 5 nM Ni-NTA AF488 labelled his6-hOGG1, unlabelled protein titrated (Myc 1.22 nM-2 uM, LSD1 1.38 nM-60 uM, hOGG1 0.24 nM-8 uM); 20 mM Tris-HCl pH 7.6, 200 mM NaCl; 25 C; single Hill fit
[2] = target: hOGG1 (human oxoguanine glycosylase 1), wildtype (human) (UniProt O15527); test: fluorescence polarisation; reducing conditions (5 mM DTT); 5 nM Ni-NTA AF488 labelled his6-hOGG1, unlabelled protein titrated (Myc 1.22 nM-2 uM, LSD1 1.38 nM-60 uM, hOGG1 0.24 nM-8 uM); 20 mM Tris-HCl pH 7.6, 200 mM NaCl; 25 C; single Hill fit
[3] = target: hOGG1 (human oxoguanine glycosylase 1), wildtype (human) (UniProt O15527); test: FP; oxidising; details: domain or fragment
[4] = target: hOGG1 (human oxoguanine glycosylase 1), wildtype (human) (UniProt O15527); test: FP; reducing; details: domain or fragment
hOGG1 wild type (human) = hOGG1 wild type (human) (UniProt O15527); test: AFM; details: 150 nM hOGG1, 8-oxoguanine at ~50% (49.8%) of length, FP at 25°C with 5 nM labelled DNA, EMSA room temp 30 min, 15% native PAGE 0.5x TBE 4°C, interaction buffer 20 mM Tris-HCl pH 7.6, 200 mM NaCl (Fig. S12) …
hOGG1 wild type (human), sequence (O15527 whole entry): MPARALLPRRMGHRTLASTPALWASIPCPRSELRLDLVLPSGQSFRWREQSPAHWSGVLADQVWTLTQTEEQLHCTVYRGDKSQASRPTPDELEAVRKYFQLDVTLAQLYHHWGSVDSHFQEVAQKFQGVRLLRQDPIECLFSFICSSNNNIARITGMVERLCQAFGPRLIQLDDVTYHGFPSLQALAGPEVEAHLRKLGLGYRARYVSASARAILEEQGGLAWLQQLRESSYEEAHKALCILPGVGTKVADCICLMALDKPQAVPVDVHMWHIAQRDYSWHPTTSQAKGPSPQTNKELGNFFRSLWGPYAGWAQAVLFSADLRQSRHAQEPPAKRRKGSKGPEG

hOGG1 (human oxoguanine glycosylase 1), wildtype (human), sequence (O15527 whole entry, the tested form may be a part): as the sequence (O15527 whole entry) above
isolated N-terminal domain of Myc, sequence (P01106 16-158): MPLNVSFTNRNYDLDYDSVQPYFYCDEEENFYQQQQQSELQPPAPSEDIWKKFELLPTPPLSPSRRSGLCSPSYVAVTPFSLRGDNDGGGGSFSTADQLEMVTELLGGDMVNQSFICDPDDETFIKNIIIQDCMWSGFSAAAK
GST tagged full length c-Myc, sequence (P01106 whole entry): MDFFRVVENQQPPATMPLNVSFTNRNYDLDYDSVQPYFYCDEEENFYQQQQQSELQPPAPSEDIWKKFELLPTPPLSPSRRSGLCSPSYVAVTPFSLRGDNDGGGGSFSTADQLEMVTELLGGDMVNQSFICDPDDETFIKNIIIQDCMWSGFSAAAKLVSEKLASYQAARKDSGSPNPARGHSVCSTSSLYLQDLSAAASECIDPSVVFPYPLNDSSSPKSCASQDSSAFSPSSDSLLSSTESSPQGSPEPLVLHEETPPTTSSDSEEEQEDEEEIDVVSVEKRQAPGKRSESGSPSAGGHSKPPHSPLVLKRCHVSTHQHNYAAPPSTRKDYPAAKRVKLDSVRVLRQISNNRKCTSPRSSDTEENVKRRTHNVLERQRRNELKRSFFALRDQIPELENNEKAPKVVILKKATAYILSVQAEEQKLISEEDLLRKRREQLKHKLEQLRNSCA

Kd [1]: 662 nM | Kd [2]: 1060 nM
Substance: GST tagged full length c-Myc (from UniProt P01106 1-454) (natural protein; Ni-NTA AlexaFluor 488 dye on the his6 tag (labelled copy in fluorescence polarisation); other documents disagree on this pair)

Kd [3]: 705 nM | Kd [4]: 1070 nM
Substance: isolated N-terminal domain of Myc

Substance: oxoG 505 bp AFM substrate
binding signal (counts/DNA at oxoG) (hOGG1 wild type (human); oxidising, specificity 368 ± 74): 0.1 | binding signal (counts/DNA at oxoG) (hOGG1 wild type (human); reducing, specificity 543 ± 37): 0.18

Source: publication PMC9561264
